Among the data in patent US20170283495A1 (published 2017) are Ka values, retold here.

In one experiment the target is T1, K18-biotin hepcidin-25 (biotin on K18).
T1 peptide: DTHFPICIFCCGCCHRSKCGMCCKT
The experiment is described as follows: Biacore (SPR); 5 µg/ml 583. (SPR reads the build-up and loss of mass on a sensor chip optically.)

The next experiment concerns the target T2, NT-biotin hepcidin-25 (NT-biotin (biotin label; NT is not spelled out, taken as the N-terminus)).
T2 peptide: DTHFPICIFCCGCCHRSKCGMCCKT
In words: Biacore (SPR); 5 µg/ml 583.

B1: murine anti-hepcidin MAb 583 (antibody, V domains shown)
VH: QIQLVQSGPELKKPGETVKISCKASGYTFTNYGMNWVKQAPGKGLKWMGWINTYTGEPTYADDFKGRFAFSLETSASTAYLQINNLKNEDTATYFCTTYATSWYWGQGTTLTVSS
VL: DIVLTQSPASLAVSLGQRATISCRASESVDSYGNSFMHWYQQKPGQPPKLLIYRASNLESGIPARFSGSGSRTDFTLTINPVEADDVATYYCQQSNEDLTFGGGTKLEIK
Regarding B1, the figures for the Ka with K18-biotin hepcidin-25 and in the experiment with NT-biotin hepcidin-25 were 1.34e+11 M⁻¹ and 5.47e+10 M⁻¹, respectively.
